Reference: patent USRE49026

Target: recombinant human IL-23R/Fc chimera (human) (UniProt Q5VWK5)
Experiment: ELISA of conditioned media on coated IL-23R-Fc, anti-p40 detection

Chain of recombinant human IL-23R/Fc chimera (human) (Q5VWK5 24-353 limits assumed, change not shown): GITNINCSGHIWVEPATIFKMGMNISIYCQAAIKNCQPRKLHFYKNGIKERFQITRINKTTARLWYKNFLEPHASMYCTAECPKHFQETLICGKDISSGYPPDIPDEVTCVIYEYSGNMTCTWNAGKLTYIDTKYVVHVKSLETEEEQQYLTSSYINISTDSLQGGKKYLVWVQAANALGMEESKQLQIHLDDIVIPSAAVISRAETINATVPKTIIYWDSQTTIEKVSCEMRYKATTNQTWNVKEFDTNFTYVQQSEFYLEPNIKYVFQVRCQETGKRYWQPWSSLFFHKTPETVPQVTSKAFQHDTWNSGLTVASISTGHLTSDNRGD

Substance “W2 IL-23 cytokine (p19 W2 to G mutant + p40) (from UniProt Q9NPF7 20-189; P29460 23-328) (ligand)” has a reduction of binding compared to WT of 50%.
